The values below come from patent US20090136936A1.

The experiment has as its target PA-FITC (PA antigen of Bacillus anthracis) (Bacillus anthracis) (UniProt P13423).

PA-FITC (PA antigen of Bacillus anthracis) (Bacillus anthracis), sequence (P13423 30-764 limits assumed): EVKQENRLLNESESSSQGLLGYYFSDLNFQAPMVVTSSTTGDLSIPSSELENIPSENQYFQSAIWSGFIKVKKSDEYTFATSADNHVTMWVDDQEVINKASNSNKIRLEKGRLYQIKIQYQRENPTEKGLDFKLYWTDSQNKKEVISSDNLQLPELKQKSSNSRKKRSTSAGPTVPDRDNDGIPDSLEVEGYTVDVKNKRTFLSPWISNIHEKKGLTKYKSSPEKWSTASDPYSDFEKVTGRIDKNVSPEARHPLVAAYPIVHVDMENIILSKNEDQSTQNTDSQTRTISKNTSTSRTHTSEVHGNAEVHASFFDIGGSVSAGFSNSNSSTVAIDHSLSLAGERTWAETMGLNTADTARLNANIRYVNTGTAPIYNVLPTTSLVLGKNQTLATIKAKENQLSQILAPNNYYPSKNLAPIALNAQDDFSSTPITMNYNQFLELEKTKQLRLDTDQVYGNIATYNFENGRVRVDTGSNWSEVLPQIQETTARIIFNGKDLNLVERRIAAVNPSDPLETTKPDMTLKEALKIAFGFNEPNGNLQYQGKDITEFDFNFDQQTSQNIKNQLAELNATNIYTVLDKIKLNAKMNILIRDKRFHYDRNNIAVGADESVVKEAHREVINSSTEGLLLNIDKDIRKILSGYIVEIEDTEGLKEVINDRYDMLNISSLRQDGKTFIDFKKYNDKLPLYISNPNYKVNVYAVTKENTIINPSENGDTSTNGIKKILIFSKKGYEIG

With 26-10 scFv (anti-digoxin), the Mn (mean fluorescence intensity) worked out at 8.49. As for PelB-M18scFv-Im2-FLAG, the Mn (mean fluorescence intensity) came out at 249.

The substance PelB-2610scFv-Im2-FLAG gave a Mn (mean fluorescence intensity) of 9.12. In turn, M18 scFv (PelB fused, anti-PA) gave a Mn (mean fluorescence intensity) of 10.3.
